Substrate: CC1=C(/C=C/C(C)=C/C=C/C(C)=C/C(=O)Oc2ccc(O[C@@H]3OC(CO)[C@@H](O)C(O)C3O)cc2)C(C)(C)CCC1
Assay: Michaelis constants (Km) and Vm of recombinant β-glucocerebrosidase for pseudosubstrates
Format: biochemical
Conditions: other: phthalate buffer pH 5.6 (0.025 M), taurocholate 5 mM, purified β-glucocerebrosidase, 30 minutes incubation, HPLC assay
Experimental: After confirming that β-glucocerebrosidase is expressed in the keratinocytes, we produced a recombinant enzyme in the baculovirus system. A histidine tail was added to the COOH end of the protein to allow it to be purified by affinity column chromatography.
Thus, we were able to determine the Michaelis constants (Km) and the Vm values of the recombinant β-glucocerebrosidase in particular for the retinoic acid-arbutin glucoconjugate. The kinetics measurements are carried out in a phthalate buffer at pH 5.6 (0.025 M) containing taurocholate (5 mM), purified β-glucocerebrosidase and the test conjugate at various concentrations. The incubation lasts 30 minutes and the amount of hydroquinone-retinoic acid conjugate released is assayed by HPLC. The table below gives the results obtained. […] As regards their rates of hydrolysis, these are lower and thus allow effects to be obtained over time.

B1: recombinant β-glucocerebrosidase (Homo sapiens) (protein)
chain: ARPCIPKSFGYSSVVCVCNATYCDSFDPPTFPALGTFSRYESTRSGRRMELSMGPIQANHTGTGLLLTLQPEQKFQKVKGFGGAMTDAAALNILALSPPAQNLLLKSYFSEEGIGYNIIRVPMASCDFSIRTYTYADTPDDFQLHNFSLPEEDTKLKIPLIHRALQLAQRPVSLLASPWTSPTWLKTNGAVNGKGSLKGQPGDIYHQTWARYFVKFLDAYAEHKLQFWAVTAENEPSAGLLSGYPFQCLGFTPEHQRDFIARDLGPTLANSTHHNVRLLMLDDQRLLLPHWAKVVLTDPEAAKYVHGIAVHWYLDFLAPAKATLGETHRLFPNTMLFASEACVGSKFWEQSVRLGSWDRGMQYSHSIITNLLYHVVGWTDWNLALNPEGGPNWVRNFVDSPIIVDITKDTFYKQPMFYHLGHFSKFIPEGSQRVGLVASQKNDLDAVALMHPDGSAVVVVLNRSSKDVPLTIKDPAVGFLETISPGYSIHTYLWRRQ
notes: histidine tail (His tag) (C); made in house
  Km: 5 ± 1.2 µM
  Vmax: 235 ± 19 nmol/h/mg

Source: US6818657B1, “Bioprecursors of a retinoic derivative and pharmaceutical and/or cosmetic compositions” (Pierre Fabre Dermo-Cosmetique, priority 1999, dated 2004)
